# From IntAct's records for PubMed 22111578
# B1: ADP-ribosylation factor 5 (Mus musculus), P84084 (parent)
# chain: MGLTVSALFSRIFGKKQMRILMVGLDAAGKTTILYKLKLGEIVTTIPTIGFNVETVEYKNICFTVWDVGGQDKIRPLWRHYFQNTQGLIFVVDSNDRERVQESADELQKMLQEDELRDAVLLVFANKQDMPNAMPVSELTDKLGLQHLRSRTWYVQATCATQGTGLYDGLDWLSHELSKR
# B2: ADP-ribosylation factor 4 (Mus musculus), P61750 (parent)
# chain: MGLTISSLFSRLFGKKQMRILMVGLDAAGKTTILYKLKLGEIVTTIPTIGFNVETVEYKNICFTVWDVGGQDKIRPLWRHYFQNTQGLIFVVDSNDRERIQEGAAVLQKMLLEDELQDAVLLLFANKQDLPNAMAISEMTDKLGLQSLRNRTWYVQATCATQGTGLYEGLDWLSNELSKR
# Variants of: B1
# Details: with caps2_mouse Cadps2, Q8BYR5
row,Variant,effect of a mutation on the interaction
1,T31N,increasing interaction

# Variants of: B1
# Details: with caps2_mouse Cadps2, Q8BYR5
# Remark: another data set of the same source
# Target sequence in this assay (Q8BYR5 whole entry): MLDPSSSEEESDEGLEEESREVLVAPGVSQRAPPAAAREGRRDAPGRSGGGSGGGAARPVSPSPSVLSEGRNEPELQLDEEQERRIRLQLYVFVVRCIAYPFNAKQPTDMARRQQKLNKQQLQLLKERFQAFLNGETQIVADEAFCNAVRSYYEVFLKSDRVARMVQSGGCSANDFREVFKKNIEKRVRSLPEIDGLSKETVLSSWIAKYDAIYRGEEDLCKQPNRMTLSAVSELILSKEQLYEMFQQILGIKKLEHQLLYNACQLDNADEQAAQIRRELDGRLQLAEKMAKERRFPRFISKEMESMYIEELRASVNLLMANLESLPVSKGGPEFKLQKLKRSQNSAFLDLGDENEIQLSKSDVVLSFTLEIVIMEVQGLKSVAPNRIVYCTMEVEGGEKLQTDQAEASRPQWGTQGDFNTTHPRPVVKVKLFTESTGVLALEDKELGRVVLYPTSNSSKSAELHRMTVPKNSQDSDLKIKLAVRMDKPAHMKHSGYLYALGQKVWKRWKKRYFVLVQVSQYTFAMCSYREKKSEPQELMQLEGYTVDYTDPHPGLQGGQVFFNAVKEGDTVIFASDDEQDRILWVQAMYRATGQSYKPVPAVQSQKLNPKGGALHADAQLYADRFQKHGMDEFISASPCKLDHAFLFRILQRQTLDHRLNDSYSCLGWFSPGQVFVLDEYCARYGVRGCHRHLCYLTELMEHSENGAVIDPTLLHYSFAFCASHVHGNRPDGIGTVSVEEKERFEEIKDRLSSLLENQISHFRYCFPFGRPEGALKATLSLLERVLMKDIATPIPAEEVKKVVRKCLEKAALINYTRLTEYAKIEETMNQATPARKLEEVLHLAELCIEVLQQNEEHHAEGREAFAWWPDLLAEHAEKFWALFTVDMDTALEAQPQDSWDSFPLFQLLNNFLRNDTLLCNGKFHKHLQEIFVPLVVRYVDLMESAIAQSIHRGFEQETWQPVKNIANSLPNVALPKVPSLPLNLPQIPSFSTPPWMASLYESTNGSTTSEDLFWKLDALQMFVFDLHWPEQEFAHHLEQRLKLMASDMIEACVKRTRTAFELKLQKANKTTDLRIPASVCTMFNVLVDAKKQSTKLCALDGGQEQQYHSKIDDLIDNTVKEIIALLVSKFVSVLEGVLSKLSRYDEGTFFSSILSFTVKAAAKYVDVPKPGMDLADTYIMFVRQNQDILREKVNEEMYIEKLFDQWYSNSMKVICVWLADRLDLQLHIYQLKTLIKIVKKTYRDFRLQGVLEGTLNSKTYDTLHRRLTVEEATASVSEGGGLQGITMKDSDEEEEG
row,Variant,effect of a mutation on the interaction
1,S6A,disrupting interaction

# Variants of: B1
# Details: with caps2_mouse Cadps2, Q8BYR5
# Remark: another data set of the same source
# Target sequence in this assay (Q8BYR5 whole entry): as above
row,Variant,effect of a mutation on the interaction
1,Q71L,disrupting interaction

# Variants of: B2
# Details: with caps2_mouse Cadps2, Q8BYR5
# Target sequence in this assay (Q8BYR5 whole entry): as above
row,Variant,effect of a mutation on the interaction
1,T31N,increasing interaction

# Variants of: B2
# Details: with caps2_mouse Cadps2, Q8BYR5
# Remark: another data set of the same source
# Target sequence in this assay (Q8BYR5 whole entry): as above
row,Variant,effect of a mutation on the interaction
1,Q71L,disrupting interaction
